Source: US20250282885A1 (VST BIO, published 2025)

Tests used:
human Sdc2 [1] = biological target: T1, human Sdc2 (human, UniProt P34741 19-144, limits assumed); assay: Kd (human Sdc2), summary table of the mAbs
T1 construct: Antigen of the Octet tandem binning, loaded on biosensors at 100 nM; also called huSdc2; hSdc2

human Sdc2 [2] = biological target: T1, human Sdc2; assay: Octet tandem binning; saturating Ab f3 19838-6N03-A
human Sdc2 [3] = biological target: T1, human Sdc2; assay: Octet tandem binning; saturating Ab m2 19838-8G17-A
human Sdc2 [4] = biological target: T1, human Sdc2; assay: Octet tandem binning; saturating Ab f9 19838-6-E17-A
human Sdc2 [5] = biological target: T1, human Sdc2; assay: Octet tandem binning; saturating Ab f12 19838-6-N03-A
human Sdc2 [6] = biological target: T1, human Sdc2; assay: Octet tandem binning; saturating Ab m1 19838-20H19-AB
human Sdc2 [7] = biological target: T1, human Sdc2; assay: Octet tandem binning; saturating Ab f10 19838-10-I12-A
human Sdc2 [8] = biological target: T1, human Sdc2; assay: Octet tandem binning; saturating Ab f4 19844-R3-P3-C11
In short: (§1)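 Octet sensors bearing 100 nM human Sdc2 got a 240 s saturating-antibody dip at 25 μg/ml and then a 180 s competitor dip at 5 μg/ml. Signal ratios are relative to buffer in place of the saturating step.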

human Sdc2 [9] = biological target: T1, human Sdc2; assay: Octet tandem binning; saturating Ab f6 19844-R3-P3-E09
In short: as §1

human Sdc2 [10] = biological target: T1, human Sdc2; assay: Octet tandem binning; saturating Ab f7 19844-R3-P3-A12
human Sdc2 [11] = biological target: T1, human Sdc2; assay: Octet tandem binning; saturating Ab m4 19844-R4M-P1-A10
In short: as §1

human Sdc2 [12] = biological target: T1, human Sdc2; assay: Octet BLI, HIS1K sensor loaded with huSdc2, antibody as sample; Full R2 0.9668
Protocol: (§2) In order to characterize the binding affinity and in vivo/in vitro functional ability of the twelve clones generated by the previous studies and disclosed in Table 1, a series of assays were performed on each clone. These assays measured the affinity of each antibody clone for human, pig, and mouse Sdc2 using an Octet® binding assay system. Additionally, the functional ability of each clone to inhibit VEGFA-driven permeability (see Santiago, et al. (2021) J Am Heart Assoc. 10(18):e020521) was assessed in two therapeutic settings: a “prevention” study in which three concentrations of antibody (5 μg/ml, 10 μg/ml, 15 μg/ml, 20 μg/ml, and/or 40 μg/ml depending on the study) were pre-incubated for an hour before administration of 100 ng/ml of VEGFA, and a “treatment” study in which 3 hours of pre-treatment with 100 ng/ml VEGFA were followed by treatment with antibody at 20 μg/ml or 40 μg/ml. Results are shown for 8-G17 in FIG. 8 and FIG. 9, 20-H19-AB in FIG. 10 and FIG. 11 (FIG. 12 for monkey ECs), R3-P3-C11 in FIG. 13 and FIG. 14, R4M-P3-E06 in FIG. 15 and FIG. 16, R3-P3-E09 in FIG. 17 and FIG. 18, R3-P1-C02 in FIG. 19 and FIG. 20, R3-P3-A12 in FIG. 21 and FIG. 22, R4M-P3-A12 in FIG. 23 and FIG. 24, and R4M-P1-A10 in FIG. 25 and FIG. 26.

pig Sdc2 [13] = biological target: T2, pig Sdc2 (pig, UniProt F1S0L5 19-145); assay: Octet BLI, HIS1K sensor loaded with pigSdc2, antibody as sample; Full R2 0.9799
T2 construct: also called pSdc2

human Sdc2 [14] = biological target: T1, human Sdc2; assay: Octet tandem binning; saturating Ab m6 19838-20H19-AA (marked non-binding ligand)
human Sdc2 [15] = biological target: T1, human Sdc2; assay: Octet tandem binning; saturating Ab m3 19844-R3-P1-C02 (row boxed, self-self >0.09)
human Sdc2 [16] = biological target: T1, human Sdc2; assay: Octet tandem binning; saturating Ab m8 19844-R4M-P1-B01 (marked non-binding ligand)
pig Sdc2 [17] = biological target: T2, pig Sdc2; assay: Octet BLI, heading box over the sensorgram; the box prints nm, the table gives 1.50E-08 M
Protocol: as §2

T1 sequence (P34741 19-144 limits assumed): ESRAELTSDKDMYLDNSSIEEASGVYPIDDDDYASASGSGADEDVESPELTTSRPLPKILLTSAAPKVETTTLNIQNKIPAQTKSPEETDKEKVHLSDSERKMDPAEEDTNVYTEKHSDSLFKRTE

Kd (human Sdc2 [1]): 0.014 µM
raw competing-Ab binding signal (human Sdc2 [2]): 0.106
raw competing-Ab binding signal (human Sdc2 [3]): 0.103
raw competing-Ab binding signal (human Sdc2 [4]): 0.115
raw competing-Ab binding signal (human Sdc2 [5]): 0.136
raw competing-Ab binding signal (human Sdc2 [6]): 0.153
raw competing-Ab binding signal (human Sdc2 [7]): 0.152
raw competing-Ab binding signal (human Sdc2 [8]): -0.0875
raw competing-Ab binding signal (human Sdc2 [9]): -0.0526
raw competing-Ab binding signal (human Sdc2 [10]): -0.0178
raw competing-Ab binding signal (human Sdc2 [11]): -0.0712
Kd (human Sdc2 [12]): 0.0144 µM
koff (human Sdc2 [12]): 0.067 s⁻¹
kon (human Sdc2 [12]): 4.65e+06 M⁻¹ s⁻¹
Kd (pig Sdc2 [13]): 0.015 µM
koff (pig Sdc2 [13]): 0.0419 s⁻¹
kon (pig Sdc2 [13]): 2.8e+06 M⁻¹ s⁻¹
raw competing-Ab binding signal (human Sdc2 [14]): 0.165
raw competing-Ab binding signal (human Sdc2 [15]): 0.0422
raw competing-Ab binding signal (human Sdc2 [16]): 0.0929
Kd (pig Sdc2 [17]): ~0.015 µM
B1: R4M-P3-A12 (antibody, human IgG1, kappa, V domains shown)
VH: EVQLVESGGGVVQPGGSLRLSCAASGFTFSDHYMSWIRQAPGKGLEWVSYLSGSGTSIYYADSVKGRFTISRDNAKKSLYLQMNSLRAEDTAVYYCARVGPAAGNAFDIWGQGTMVTVSS
VL: QSVLTQPPSASGTPGQRVTISCSGSSSNIGSNYVYWYQQLPGTAPKLLIYRNNQRPSGVPDRFSGSKSGTSASLAITGLQAEDEADYYCQSYDSSLSGVVFGGGTKLTVLR
